One assay has as its target 4H_GCN4. The assay is described as follows: two-hybrid library CCmax.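 Note: natural log of median RNA to DNA barcode read ratio; higher means stronger binding.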
The target of a further assay is T1, 4H3705-AA.
T1 chain: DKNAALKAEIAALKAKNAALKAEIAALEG
The assay is described as follows: two-hybrid library CCmax.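 Note: natural log of median RNA to DNA barcode read ratio; higher means stronger binding.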 The conditions noted are these: mean of both orientations.

For the next assay, the target named is T2, 4H2721-AA.
T2 chain: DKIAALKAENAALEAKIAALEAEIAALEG
The assay is described as follows: two-hybrid library CCmax.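 Note: natural log of median RNA to DNA barcode read ratio; higher means stronger binding.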 Particulars: mean of both orientations.

Another assay addresses T3, 4H_BCR.
T3 chain: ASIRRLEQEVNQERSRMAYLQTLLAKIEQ
Briefly: two-hybrid library CCmax.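 Note: natural log of median RNA to DNA barcode read ratio; higher means stronger binding.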 The conditions noted are these: mean of both orientations.

The next assay deals with T4, 4H486-AA.
T4 chain: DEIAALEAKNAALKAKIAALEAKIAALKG
The assay is described as follows: two-hybrid library CCmax.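 Note: natural log of median RNA to DNA barcode read ratio; higher means stronger binding.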 Particulars: mean of both orientations.

The target in another assay is T5, 4H3365-AA.
T5 chain: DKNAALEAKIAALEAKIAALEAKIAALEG
The assay is described as follows: two-hybrid library CCmax.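 Note: natural log of median RNA to DNA barcode read ratio; higher means stronger binding.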 Particulars: mean of both orientations.

A further assay deals with T6, 4H535-AA.
T6 chain: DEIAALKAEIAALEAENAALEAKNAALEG
Briefly: two-hybrid library CCmax. The conditions noted are these: mean of both orientations.

For a further assay, the target named is T7, 4H895-AA.
T7 chain: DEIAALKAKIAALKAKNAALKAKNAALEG
Briefly: two-hybrid library CCmax. The conditions noted are these: mean of both orientations.

The next assay deals with T8, 4H3651-AA.
T8 chain: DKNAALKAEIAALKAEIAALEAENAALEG
The assay is described as follows: two-hybrid library CCmax. Particulars: mean of both orientations.

A further assay addresses T9, 4H1802-AA.
T9 chain: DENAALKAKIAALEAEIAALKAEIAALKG
The assay is described as follows: two-hybrid library CCmax. The conditions noted are these: mean of both orientations.

Another assay addresses T10, 4H58-AA.
T10 chain: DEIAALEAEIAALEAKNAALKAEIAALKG
The assay is described as follows: two-hybrid library CCmax. Particulars: mean of both orientations.

For the next assay, the target named is T11, 4H140-AA.
T11 chain: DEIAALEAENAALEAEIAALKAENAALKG
Briefly: two-hybrid library CCmax.

The target of a further assay is GCN2_T. Briefly: two-hybrid library CCmax. Particulars: mean of both orientations.
A further assay deals with T12, 4H465-AA.
T12 chain: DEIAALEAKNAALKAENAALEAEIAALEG
The assay is described as follows: two-hybrid library CCmax. The conditions noted are these: mean of both orientations.

A further assay concerns the target T13, 4H2600-AA.
T13 chain: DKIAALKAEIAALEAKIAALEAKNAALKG
Briefly: two-hybrid library CCmax. Particulars: mean of both orientations.

The target of another assay is T14, 4H2898-AA.
T14 chain: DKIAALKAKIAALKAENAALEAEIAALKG
The assay is described as follows: two-hybrid library CCmax. The conditions noted are these: mean of both orientations.

The target of another assay is T15, 4H_APH.
T15 chain: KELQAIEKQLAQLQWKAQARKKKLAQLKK
Briefly: two-hybrid library CCmax. Particulars: mean of both orientations.

In a further assay the target is T16, 4H3782-AA.
T16 chain: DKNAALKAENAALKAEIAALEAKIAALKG
Briefly: two-hybrid library CCmax. The conditions noted are these: mean of both orientations.

Another assay deals with T17, 4H355-AA.
T17 chain: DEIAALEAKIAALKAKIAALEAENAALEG
Briefly: two-hybrid library CCmax. Particulars: mean of both orientations.

For the next assay, the target named is T18, 4H2750-AA.
T18 chain: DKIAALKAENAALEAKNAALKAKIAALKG
The assay is described as follows: two-hybrid library CCmax. The conditions noted are these: mean of both orientations.

The target in the next assay is T19, 4H3020-AA.
T19 chain: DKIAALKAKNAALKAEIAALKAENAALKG
Briefly: two-hybrid library CCmax. Particulars: mean of both orientations.

The target of another assay is T20, P8A.
T20 chain: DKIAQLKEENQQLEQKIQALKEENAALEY
Briefly: two-hybrid library CCNG1.

The target in a further assay is T21, P9A.
T21 chain: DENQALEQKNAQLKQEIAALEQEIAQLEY
Briefly: two-hybrid library CCNG1.

In another assay the target is T22, P5A.
T22 chain: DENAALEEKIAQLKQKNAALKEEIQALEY
The assay is described as follows: two-hybrid library CCNG1.

A further assay has as its target T23, P4A.
T23 chain: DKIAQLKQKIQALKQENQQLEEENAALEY
Briefly: two-hybrid library CCNG1.

Another assay has as its target T24, P3A.
T24 chain: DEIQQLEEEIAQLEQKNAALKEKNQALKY
Briefly: two-hybrid library CCNG1.

The next assay concerns the target T25, P6A.
T25 chain: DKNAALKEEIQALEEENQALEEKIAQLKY
Briefly: two-hybrid library CCNG1.

For another assay, the target named is T26, P2A.
T26 chain: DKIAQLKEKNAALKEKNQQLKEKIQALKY
Briefly: two-hybrid library CCNG1.

The next assay addresses T27, P1A.
T27 chain: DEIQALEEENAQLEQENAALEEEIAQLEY
Briefly: two-hybrid library CCNG1.

For the next assay, the target named is T28, P7A.
T28 chain: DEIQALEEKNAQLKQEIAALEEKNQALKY
Briefly: two-hybrid library CCNG1.

Chain of 4H_GCN4 (chain, as listed by the source): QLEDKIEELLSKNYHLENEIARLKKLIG

Regarding DEIAALEAENAALEAEIAALKAENAALKG [4H140-AA], the interaction score was -0.95 in the assay with 4H_GCN4; 1.36 in the assay with 4H3705-AA; -1.25 with 4H2721-AA; -1.18 with 4H_BCR; -0.379 in the assay with 4H486-AA; -1.08 with 4H3365-AA. The interaction score in the assay with 4H535-AA was -1.56; in the assay with 4H895-AA it was -1.44; in the assay with 4H3651-AA, -1.02; in the assay with 4H1802-AA it was -1.67; in the assay with 4H58-AA it was 1.01; with 4H140-AA it was 1.28. Besides, the interaction score with GCN2_T was -1.08; with 4H465-AA, -1.51; in the assay with 4H2600-AA, -1.83; with 4H2898-AA it was -0.325; with 4H_APH, -2.79; with 4H3782-AA, -0.5. Moreover, the interaction score is -1.06 with 4H355-AA, -0.883 with 4H2750-AA and 2.23 with 4H3020-AA.

As for DEIQALEEENAQLEQENAALEEEIAQLEY [P1A], the interaction score with P8A was -1; with P9A, -1.68; with P5A it was -2.1; with P4A, -0.87; in the assay with P3A it was -1.69; in the assay with P6A, -1.54. The interaction score was 2.6 with P2A, -1.11 with P1A and -1.31 with P7A.

(Values after PMC10397247.)
